B1: V397S: mutation to UGT enzyme of SEQ ID NO: 13 (protein)
chain: MATKGSSGMSLAERFWLTLSRSSLVVGRSCVEFEPETVPLLSTLRGKPITFLGLMPPLHEGRREDGEDATVRWLDAQPAKSVVYVALGSEVPLGVEKVHELALGLELAGTRFLWALRKPTGVSDADLLPAGFEERTRGRGVVATRWVPQMSILAHAAVGAFLTHCGWNSTIEGLMFGHPLIMLPIFGDQGPNARLIEAKNAGLQVARNDGDGSFDREGVAAAIRAVAVEEESSKVFQAKAKKLQEIVADMACHERYIDGFIQQLRSYKDDSGYSSSYAAAAGMHVVICPWLAFGHLLPCLDLAQRLASRGHRVSFVSTPRNISRLPPVRPALAPLVAFVALPLPRVEGLPDGAESTNDVPHDRPDMVELHRRAFDGLAAPFSEFLGTACADWVIVDSFHHWAAAAALEHKVPCAMMLLGSAEMIASIADERLEHAETESPAAAGQGRPAAAPTFEVARMKLIR
B2: V397C: mutation to UGT enzyme of SEQ ID NO: 13 (protein)
chain: MATKGSSGMSLAERFWLTLSRSSLVVGRSCVEFEPETVPLLSTLRGKPITFLGLMPPLHEGRREDGEDATVRWLDAQPAKSVVYVALGSEVPLGVEKVHELALGLELAGTRFLWALRKPTGVSDADLLPAGFEERTRGRGVVATRWVPQMSILAHAAVGAFLTHCGWNSTIEGLMFGHPLIMLPIFGDQGPNARLIEAKNAGLQVARNDGDGSFDREGVAAAIRAVAVEEESSKVFQAKAKKLQEIVADMACHERYIDGFIQQLRSYKDDSGYSSSYAAAAGMHVVICPWLAFGHLLPCLDLAQRLASRGHRVSFVSTPRNISRLPPVRPALAPLVAFVALPLPRVEGLPDGAESTNDVPHDRPDMVELHRRAFDGLAAPFSEFLGTACADWVIVDCFHHWAAAAALEHKVPCAMMLLGSAEMIASIADERLEHAETESPAAAGQGRPAAAPTFEVARMKLIR
B3: A451T: mutation to UGT enzyme of SEQ ID NO: 13 (protein)
chain: MATKGSSGMSLAERFWLTLSRSSLVVGRSCVEFEPETVPLLSTLRGKPITFLGLMPPLHEGRREDGEDATVRWLDAQPAKSVVYVALGSEVPLGVEKVHELALGLELAGTRFLWALRKPTGVSDADLLPAGFEERTRGRGVVATRWVPQMSILAHAAVGAFLTHCGWNSTIEGLMFGHPLIMLPIFGDQGPNARLIEAKNAGLQVARNDGDGSFDREGVAAAIRAVAVEEESSKVFQAKAKKLQEIVADMACHERYIDGFIQQLRSYKDDSGYSSSYAAAAGMHVVICPWLAFGHLLPCLDLAQRLASRGHRVSFVSTPRNISRLPPVRPALAPLVAFVALPLPRVEGLPDGAESTNDVPHDRPDMVELHRRAFDGLAAPFSEFLGTACADWVIVDVFHHWAAAAALEHKVPCAMMLLGSAEMIASIADERLEHAETESPAAAGQGRPAATPTFEVARMKLIR
B4: A451L: mutation to UGT enzyme of SEQ ID NO: 13 (protein)
chain: MATKGSSGMSLAERFWLTLSRSSLVVGRSCVEFEPETVPLLSTLRGKPITFLGLMPPLHEGRREDGEDATVRWLDAQPAKSVVYVALGSEVPLGVEKVHELALGLELAGTRFLWALRKPTGVSDADLLPAGFEERTRGRGVVATRWVPQMSILAHAAVGAFLTHCGWNSTIEGLMFGHPLIMLPIFGDQGPNARLIEAKNAGLQVARNDGDGSFDREGVAAAIRAVAVEEESSKVFQAKAKKLQEIVADMACHERYIDGFIQQLRSYKDDSGYSSSYAAAAGMHVVICPWLAFGHLLPCLDLAQRLASRGHRVSFVSTPRNISRLPPVRPALAPLVAFVALPLPRVEGLPDGAESTNDVPHDRPDMVELHRRAFDGLAAPFSEFLGTACADWVIVDVFHHWAAAAALEHKVPCAMMLLGSAEMIASIADERLEHAETESPAAAGQGRPAALPTFEVARMKLIR
B5: T453K: mutation to UGT enzyme of SEQ ID NO: 13 (protein)
chain: MATKGSSGMSLAERFWLTLSRSSLVVGRSCVEFEPETVPLLSTLRGKPITFLGLMPPLHEGRREDGEDATVRWLDAQPAKSVVYVALGSEVPLGVEKVHELALGLELAGTRFLWALRKPTGVSDADLLPAGFEERTRGRGVVATRWVPQMSILAHAAVGAFLTHCGWNSTIEGLMFGHPLIMLPIFGDQGPNARLIEAKNAGLQVARNDGDGSFDREGVAAAIRAVAVEEESSKVFQAKAKKLQEIVADMACHERYIDGFIQQLRSYKDDSGYSSSYAAAAGMHVVICPWLAFGHLLPCLDLAQRLASRGHRVSFVSTPRNISRLPPVRPALAPLVAFVALPLPRVEGLPDGAESTNDVPHDRPDMVELHRRAFDGLAAPFSEFLGTACADWVIVDVFHHWAAAAALEHKVPCAMMLLGSAEMIASIADERLEHAETESPAAAGQGRPAAAPKFEVARMKLIR
B6: T453R: mutation to UGT enzyme of SEQ ID NO: 13 (protein)
chain: MATKGSSGMSLAERFWLTLSRSSLVVGRSCVEFEPETVPLLSTLRGKPITFLGLMPPLHEGRREDGEDATVRWLDAQPAKSVVYVALGSEVPLGVEKVHELALGLELAGTRFLWALRKPTGVSDADLLPAGFEERTRGRGVVATRWVPQMSILAHAAVGAFLTHCGWNSTIEGLMFGHPLIMLPIFGDQGPNARLIEAKNAGLQVARNDGDGSFDREGVAAAIRAVAVEEESSKVFQAKAKKLQEIVADMACHERYIDGFIQQLRSYKDDSGYSSSYAAAAGMHVVICPWLAFGHLLPCLDLAQRLASRGHRVSFVSTPRNISRLPPVRPALAPLVAFVALPLPRVEGLPDGAESTNDVPHDRPDMVELHRRAFDGLAAPFSEFLGTACADWVIVDVFHHWAAAAALEHKVPCAMMLLGSAEMIASIADERLEHAETESPAAAGQGRPAAAPRFEVARMKLIR
B7: V456S: mutation to UGT enzyme of SEQ ID NO: 13 (protein)
chain: MATKGSSGMSLAERFWLTLSRSSLVVGRSCVEFEPETVPLLSTLRGKPITFLGLMPPLHEGRREDGEDATVRWLDAQPAKSVVYVALGSEVPLGVEKVHELALGLELAGTRFLWALRKPTGVSDADLLPAGFEERTRGRGVVATRWVPQMSILAHAAVGAFLTHCGWNSTIEGLMFGHPLIMLPIFGDQGPNARLIEAKNAGLQVARNDGDGSFDREGVAAAIRAVAVEEESSKVFQAKAKKLQEIVADMACHERYIDGFIQQLRSYKDDSGYSSSYAAAAGMHVVICPWLAFGHLLPCLDLAQRLASRGHRVSFVSTPRNISRLPPVRPALAPLVAFVALPLPRVEGLPDGAESTNDVPHDRPDMVELHRRAFDGLAAPFSEFLGTACADWVIVDVFHHWAAAAALEHKVPCAMMLLGSAEMIASIADERLEHAETESPAAAGQGRPAAAPTFESARMKLIR
B8: V456W: mutation to UGT enzyme of SEQ ID NO: 13 (protein)
chain: MATKGSSGMSLAERFWLTLSRSSLVVGRSCVEFEPETVPLLSTLRGKPITFLGLMPPLHEGRREDGEDATVRWLDAQPAKSVVYVALGSEVPLGVEKVHELALGLELAGTRFLWALRKPTGVSDADLLPAGFEERTRGRGVVATRWVPQMSILAHAAVGAFLTHCGWNSTIEGLMFGHPLIMLPIFGDQGPNARLIEAKNAGLQVARNDGDGSFDREGVAAAIRAVAVEEESSKVFQAKAKKLQEIVADMACHERYIDGFIQQLRSYKDDSGYSSSYAAAAGMHVVICPWLAFGHLLPCLDLAQRLASRGHRVSFVSTPRNISRLPPVRPALAPLVAFVALPLPRVEGLPDGAESTNDVPHDRPDMVELHRRAFDGLAAPFSEFLGTACADWVIVDVFHHWAAAAALEHKVPCAMMLLGSAEMIASIADERLEHAETESPAAAGQGRPAAAPTFEWARMKLIR
B9: V456M: mutation to UGT enzyme of SEQ ID NO: 13 (protein)
chain: MATKGSSGMSLAERFWLTLSRSSLVVGRSCVEFEPETVPLLSTLRGKPITFLGLMPPLHEGRREDGEDATVRWLDAQPAKSVVYVALGSEVPLGVEKVHELALGLELAGTRFLWALRKPTGVSDADLLPAGFEERTRGRGVVATRWVPQMSILAHAAVGAFLTHCGWNSTIEGLMFGHPLIMLPIFGDQGPNARLIEAKNAGLQVARNDGDGSFDREGVAAAIRAVAVEEESSKVFQAKAKKLQEIVADMACHERYIDGFIQQLRSYKDDSGYSSSYAAAAGMHVVICPWLAFGHLLPCLDLAQRLASRGHRVSFVSTPRNISRLPPVRPALAPLVAFVALPLPRVEGLPDGAESTNDVPHDRPDMVELHRRAFDGLAAPFSEFLGTACADWVIVDVFHHWAAAAALEHKVPCAMMLLGSAEMIASIADERLEHAETESPAAAGQGRPAAAPTFEMARMKLIR
B10: G5N: mutation to UGT enzyme of SEQ ID NO: 13 (protein)
chain: MATKNSSGMSLAERFWLTLSRSSLVVGRSCVEFEPETVPLLSTLRGKPITFLGLMPPLHEGRREDGEDATVRWLDAQPAKSVVYVALGSEVPLGVEKVHELALGLELAGTRFLWALRKPTGVSDADLLPAGFEERTRGRGVVATRWVPQMSILAHAAVGAFLTHCGWNSTIEGLMFGHPLIMLPIFGDQGPNARLIEAKNAGLQVARNDGDGSFDREGVAAAIRAVAVEEESSKVFQAKAKKLQEIVADMACHERYIDGFIQQLRSYKDDSGYSSSYAAAAGMHVVICPWLAFGHLLPCLDLAQRLASRGHRVSFVSTPRNISRLPPVRPALAPLVAFVALPLPRVEGLPDGAESTNDVPHDRPDMVELHRRAFDGLAAPFSEFLGTACADWVIVDVFHHWAAAAALEHKVPCAMMLLGSAEMIASIADERLEHAETESPAAAGQGRPAAAPTFEVARMKLIR

System: steviol glycoside
Test: steviol glycoside bioconversion by E. coli expressing individual mutations of UGT SEQ ID NO: 13
Type: cell-based
Conditions: fold improvement of % conversion vs parent UGT SEQ ID NO: 13; stevia leaf extract and glucose fed; 37° C., 48 hr
Excerpt: A UGT enzyme referred to as MbUGT1,2 is described in U.S. Pat. No. 10,743,567, which is hereby incorporated by reference. An engineered version of MbUGT1,2 (SEQ ID NO: 13) is described in US 2020/0087692, which is hereby incorporated by reference in its entirety. The UGT enzyme of SEQ ID NO: 13 was further engineered to improve activity for steviol glycoside bioconversion. […] Fold improvement is with respect to % steviol glycoside conversion of the parent UGT enzyme (SEQ ID NO: 13). SEQ ID NO: 14 has the following mutations from SEQ ID NO: 13: G5N, F186T, V397S. Stevia leaf extract and glucose were fed to the bioconversion strains. Bioconversion took place at 37° C. for 48 hr. Data were quantified by reverse phase LC DAD to quantify conversion of steviol glycosides.
Fold improvement (FI) is with respect to % steviol glycoside conversion.

Row | Molecule | FI %Stevioside→rebE | FI %rebA→rebD
1 | B1 | 3.8 | 3.4
2 | B2 | 1.9 | 1.9
3 | B3 | 1.8 | 2.0
4 | B4 | 1.4 | 1.5
5 | B5 | 1.4 | 1.6
6 | B6 | 1.4 | 1.6
7 | B7 | 1.5 | 1.6
8 | B8 | 1.2 | 1.2
9 | B9 | 1.5 | 1.5
10 | B10 | 1.5 | 1.5

— patent US20260242839A1, “GLYCOSIDE PRODUCT BIOSYNTHESIS AND RECOVERY” (Manus Bio Inc., priority 2023, published 2026)
